{"source": "paper PMC9474507", "key": {"[1]": {"target": "pre-formed corona layer (proteins of 10% mouse serum pre-adsorbed on L-NPs) (mouse (endogenous in serum))", "assay": "BLI; L-NPs loaded on human IgG-coated AR2G biosensors, immersed in 10% mouse serum (300 s in the methods, 3 min in the text) and rinsed with water; association 300 s with 6.25-100 nM HSA or IgG, dissociation 600 s in buffer; 30 °C, 1000 rpm; 1:1 model"}, "[2]": {"target": "Albumin purified from human serum (human) (UniProt P02768)", "assay": "BLI; HSA pre-coated on L-NPs"}, "[3]": {"target": "Immunoglobulin G purified from human serum (human) [IgG part: P01857]", "assay": "BLI; IgG pre-coated on L-NPs"}}, "note": "pKd: −log10 of the molar value.", "data": [{"substance": "Albumin purified from human serum (from UniProt P02768 25-609) (natural protein)", "values": [{"measurement": "pKd", "setting": "[1]", "value": 7.49}]}, {"substance": "Immunoglobulin G purified from human serum (antibody)", "values": [{"measurement": "pKd", "setting": "[1]", "value": 8.92}]}, {"substance": "Immunoglobulin G purified from human serum (from UniProt P01857)", "values": [{"measurement": "pKd", "setting": "[2]", "value": "> 12.00"}, {"measurement": "pKd", "setting": "[3]", "value": 8.29}]}]}
